T1: GFP-9S library array, motif 4 ND N98P;D124G (synthetic construct, N98P;D124G)
T1 chain: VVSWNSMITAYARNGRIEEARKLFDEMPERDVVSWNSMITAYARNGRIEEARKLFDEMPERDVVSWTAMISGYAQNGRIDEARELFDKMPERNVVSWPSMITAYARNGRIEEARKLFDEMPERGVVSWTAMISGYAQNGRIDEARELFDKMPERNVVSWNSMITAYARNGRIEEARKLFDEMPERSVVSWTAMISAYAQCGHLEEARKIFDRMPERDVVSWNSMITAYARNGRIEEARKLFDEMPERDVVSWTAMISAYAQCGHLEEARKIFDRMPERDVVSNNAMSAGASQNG

T2: GFP-9S library array, motif 4 ND N98V;D124Q (synthetic construct, N98V;D124Q)
T2 chain: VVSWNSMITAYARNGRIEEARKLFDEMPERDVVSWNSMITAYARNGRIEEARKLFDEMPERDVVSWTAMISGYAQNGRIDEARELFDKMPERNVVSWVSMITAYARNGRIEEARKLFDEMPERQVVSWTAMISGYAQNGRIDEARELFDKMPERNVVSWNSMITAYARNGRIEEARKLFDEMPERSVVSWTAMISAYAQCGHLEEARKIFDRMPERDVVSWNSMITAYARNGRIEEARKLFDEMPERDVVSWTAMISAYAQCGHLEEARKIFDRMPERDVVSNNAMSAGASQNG

T3: GFP-9S library array, motif 4 ND N98G (synthetic construct, N98G)
T3 chain: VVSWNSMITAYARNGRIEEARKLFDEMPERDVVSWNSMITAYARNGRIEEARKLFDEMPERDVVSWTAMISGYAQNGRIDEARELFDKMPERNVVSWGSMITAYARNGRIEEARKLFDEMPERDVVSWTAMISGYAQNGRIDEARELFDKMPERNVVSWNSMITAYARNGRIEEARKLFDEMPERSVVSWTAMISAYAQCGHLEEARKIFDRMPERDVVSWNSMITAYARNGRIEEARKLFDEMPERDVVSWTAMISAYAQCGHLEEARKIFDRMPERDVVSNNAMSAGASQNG

T4: GFP-9S library array, motif 4 ND D124P (synthetic construct, D124P)
T4 chain: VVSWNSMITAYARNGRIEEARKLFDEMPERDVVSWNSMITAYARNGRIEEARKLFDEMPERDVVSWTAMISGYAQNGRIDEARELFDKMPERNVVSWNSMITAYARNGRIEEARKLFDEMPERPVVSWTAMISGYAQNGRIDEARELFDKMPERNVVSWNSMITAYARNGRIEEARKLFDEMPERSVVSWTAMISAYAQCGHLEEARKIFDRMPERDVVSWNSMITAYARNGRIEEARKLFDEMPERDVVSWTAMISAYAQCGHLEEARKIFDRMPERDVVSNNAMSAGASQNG

T5: GFP-9S library array, motif 4 ND N98C;D124H (synthetic construct, N98C;D124H)
T5 chain: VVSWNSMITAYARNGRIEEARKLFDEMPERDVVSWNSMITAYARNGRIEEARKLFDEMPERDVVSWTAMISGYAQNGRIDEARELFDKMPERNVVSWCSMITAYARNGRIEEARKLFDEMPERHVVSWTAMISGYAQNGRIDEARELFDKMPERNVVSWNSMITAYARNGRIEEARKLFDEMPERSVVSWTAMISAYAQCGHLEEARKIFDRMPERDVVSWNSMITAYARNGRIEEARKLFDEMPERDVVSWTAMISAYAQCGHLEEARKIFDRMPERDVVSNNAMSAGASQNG


Tests used:
Assay in all cases: high-throughput RNA pulldown from lysate on Ni-NTA beads; HRP: 50 mM Tris pH 8, 150 mM NaCl, 1 mM beta-mercaptoethanol, 50 ug/ml BSA, 3 ug/ml yeast RNA, 0.5% heparin; ITC and FP: Tris pH 8, 200 mM KCl, 5% glycerol; MST: 50 mM Tris pH 8, 200 mM NaCl, 1 mM DTT, BSA, heparin, 0.05% Tween 20
Settings in all cases: tags: N-terminal His-eGFP
[1] = biological target: T1, GFP-9S library array, motif 4 ND …
[2] = biological target: T2, GFP-9S library array, motif 4 ND …
[3] = biological target: T3, GFP-9S library array, motif 4 ND N98G
[4] = biological target: T4, GFP-9S library array, motif 4 ND D124P
[5] = biological target: T5, GFP-9S library array, motif 4 ND …

Row | Binder | Kd ([1]; label: 5' Cy5) [nM] | Kd ([2]; label: 5' Cy5) [nM] | Kd ([3]; label: 5' Cy5) [nM] | Kd ([4]; label: 5' Cy5) [nM] | Kd ([5]; label: 5' Cy5) [nM] | Kd ([1]; label: 5' IRDye 800CW) [nM] | Kd ([2]; label: 5' IRDye 800CW) [nM] | Kd ([3]; label: 5' IRDye 800CW) [nM] | Kd ([4]; label: 5' IRDye 800CW) [nM] | Kd ([5]; label: 5' IRDye 800CW) [nM]
1 | AUUAGACGUGA (ssRNA) [Cy5-rpoA-G] | 262 | 126 | 32.5 | 158 | 57.7 |  |  |  |  | 
2 | AUUACACGUGA (ssRNA) [Cy5-rpoA] | 345 | 144 | 402 | 123 | 124 |  |  |  |  | 
3 | AUUAUACGUGA (ssRNA) [IR-rpoA-U] |  |  |  |  |  | 778 | 167 | 408 | 154 | 152
4 | AUUAAACGUGA (ssRNA) [IR-rpoA-A] |  |  |  |  |  | 735 | 166 | 495 | 290 | 25.4

From article PMC8809517, “Cofactor-independent RNA editing by a synthetic S-type PPR protein”
